What was measured:
[1] = FITC-FA fluorescence microscopy of stable cell lines, 24 h; details: glycan lost; control: FOLR1 WT stable cells
[2] = qRT-PCR and label-free quantitative proteomics of FOLR1; details: glycan changed form; control: matched control stable cells

Protein	other: folate uptake [1]	expression_or_secretion [2]
folate receptor alpha (FOLR1): N69A (protein) parent chain: MAQRMTTQLLLLLVWVAVVGEAQTRIAWARTELLNVCMNAKHHKEKPGPEDKLHEQCRPWRKNACCSTNTSQEAHKDVSYLYRFNWNHCGEMAPACKRHFIQDTCLYECSPNLGPWIQQVDQSWRKERVLNVPLCKEDCEQWWEDCRTSYTCKSNWHKGWNWTSGFNKCAVGAACQPFHFYFPTPTVLCNEIWTHSYKVSNYSRGSGRCIQMWFDPAQGNPNEEVARFYAAAMSGAGPWAAWPFLLSLALMLLWLLS	decreases	–
folate receptor alpha (FOLR1): N161A (protein) parent chain: MAQRMTTQLLLLLVWVAVVGEAQTRIAWARTELLNVCMNAKHHKEKPGPEDKLHEQCRPWRKNACCSTNTSQEAHKDVSYLYRFNWNHCGEMAPACKRHFIQDTCLYECSPNLGPWIQQVDQSWRKERVLNVPLCKEDCEQWWEDCRTSYTCKSNWHKGWNWTSGFNKCAVGAACQPFHFYFPTPTVLCNEIWTHSYKVSNYSRGSGRCIQMWFDPAQGNPNEEVARFYAAAMSGAGPWAAWPFLLSLALMLLWLLS	decreases	–
folate receptor alpha (FOLR1): N201A (protein) parent chain: MAQRMTTQLLLLLVWVAVVGEAQTRIAWARTELLNVCMNAKHHKEKPGPEDKLHEQCRPWRKNACCSTNTSQEAHKDVSYLYRFNWNHCGEMAPACKRHFIQDTCLYECSPNLGPWIQQVDQSWRKERVLNVPLCKEDCEQWWEDCRTSYTCKSNWHKGWNWTSGFNKCAVGAACQPFHFYFPTPTVLCNEIWTHSYKVSNYSRGSGRCIQMWFDPAQGNPNEEVARFYAAAMSGAGPWAAWPFLLSLALMLLWLLS	decreases	–
folate receptor alpha (FOLR1): FUT8 overexpression (protein) parent chain: MAQRMTTQLLLLLVWVAVVGEAQTRIAWARTELLNVCMNAKHHKEKPGPEDKLHEQCRPWRKNACCSTNTSQEAHKDVSYLYRFNWNHCGEMAPACKRHFIQDTCLYECSPNLGPWIQQVDQSWRKERVLNVPLCKEDCEQWWEDCRTSYTCKSNWHKGWNWTSGFNKCAVGAACQPFHFYFPTPTVLCNEIWTHSYKVSNYSRGSGRCIQMWFDPAQGNPNEEVARFYAAAMSGAGPWAAWPFLLSLALMLLWLLS	–	no change
folate receptor alpha (FOLR1): shFUT8 (protein) parent chain: MAQRMTTQLLLLLVWVAVVGEAQTRIAWARTELLNVCMNAKHHKEKPGPEDKLHEQCRPWRKNACCSTNTSQEAHKDVSYLYRFNWNHCGEMAPACKRHFIQDTCLYECSPNLGPWIQQVDQSWRKERVLNVPLCKEDCEQWWEDCRTSYTCKSNWHKGWNWTSGFNKCAVGAACQPFHFYFPTPTVLCNEIWTHSYKVSNYSRGSGRCIQMWFDPAQGNPNEEVARFYAAAMSGAGPWAAWPFLLSLALMLLWLLS	–	no change

Reference: publication PMC8171077
